Assay results: publication PMC4533164, “Approaching rational epitope vaccine design for hepatitis C virus with meta-server and multivalent scaffolding” (Scientific Reports, 2015)

What was measured:
1VQO_U_ES-ferritin [1] = molecular target: 1VQO_U_ES-ferritin (UniProt Q9ZLI1); assay: native gel or EMSA; blue native (BN) PAGE of the purified nanoparticle, Coomassie blue staining
1VQO_U_ES-ferritin [2] = molecular target: T1, 1VQO_U_ES-ferritin (UniProt Q9ZLI1); assay: ELISA; HCV antigen coated on 96-well plates overnight at 4 °C; antibody added at a maximum of 2 μg/ml in a 5-fold dilution series, 1 h at RT; detected with peroxidase goat anti-human IgG, read at 450 nm; details: both partners purified
T1 construct: ferritin subunit beginning at Asp5; 24 copies on the particle; also called E1 nanoparticle antigen; source: HEK293F, transiently expressed, purified (Ni Sepharose excel, SEC); copies: 24

| Molecule | stoichiometry N (1VQO_U_ES-ferritin [1]) | binding result (1VQO_U_ES-ferritin [2]) |
| --- | --- | --- |
| 1VQO_U_ES-ferritin (from UniProt Q9ZLI1 5-167) | 24 |  |
| human neutralizing antibody IGH526 (antibody, V domains shown, Captured on anti-human Fc biosensors and detected with anti-human IgG, so it carried a human Fc in the assays; also called nAb IGH526) VH: VQLLEQSGAEVKRPGASVKVSCKASGYTFTSYAIHWVRQAPGQRLEWMGWINPGNGNAKYSQRFQGRVIISRDTSATTSYMELSSLTSEDTAVYSCARDRGFDLLTGHYLGLDPWGQGTLVTVSS VL: ELTLTQPASASATPGQRVTISCSGSSSNIGGNTVNWYQHLPGAAPKLLIHNNDLRPSGVPDRFSGSKSGTSASLAVSGLQSEDEADYFCAAWDDGLNGWVFGGGTKLTVL |  | binds |
